A short description of the data set: soluble on expression in E. coli; label from the status in PepcDB or PDB records.
For the sequence “MIDFSNIETYWPMTSSAFGLFITQGGLKPIFTSLNHMWYSKYGYLTERKAKLKEIENEYIYEIEKRKLENQEKFKNEIDCEFSKIPQTSLKEPVEYILYPAINESEQYLSNETLRNMFARTIASTFNQDKEKDLHSAFVQIIKQMTPLDAQNLLLINQEGNNLIANLQIGVHYSKENLSGTVNKANNIYLSKLDYSPDIIASSIDNLTRLGLIKVDYLHYPLDSNYESIKQTTIYKSLESEINTLNLFKTSNTKYDIKIEKGKVSLTDFGKKFISVCLE”, the “soluble on expression in E. coli” value is on record as “not soluble”. With “MGHHHHHHSHMLYVRCGTVGSRMFLVYVSYLINTTIEEKEIVCKCHKDETVTIETVFPFDVAVKFVSTKFEHLERVYADIPFLLMTDLLSASPWALTIVSSELQLAPSMTTVDQLESQVDNVILQTGESASECFCLQCPSLGNIEGGVATGHYIISWKRTSAMENIPIITTVITLPHVIVESIPLHVNADLPSFGRVRESLPVKYHLQNKTDLVQDVEISVEPSDAFMFSGLKQIRLRILPGTEQEMLYNFYPLMAGYQQLPSLNINLLRFPNFTNQLLRRFIPTSIFVKPQGRLMDDTSIAAA”, the “soluble on expression in E. coli” value is given as “not soluble”. With “MSSQRWLWRNQHSVQTNIGSREKDLKITKTKKIKKKHERAYELLAEAAYSDPFAALGPFIDDGEGSLRVWMPGANKVELLVNGEPRVALERDGDSGFILKEQRDLHLTHYRLAVDWNGVEQIIDDPYQYHNIYQEYEHLHTPKDM”, the “soluble on expression in E. coli” value is given as “not soluble”. Consider “MGSDKIHHHHHHMKAFDRDASEPRIGLAYGPGMAEFAARNAHLVDYIEVPFEQLRFSPAVAELQQTIPFVLHCASLSVAGFVPPDDSTVDAIERTAVQTGTPWIGEHLAYISADPVGEALGGTGEPTSLSYTLCPQLSDETVRRVVDNLAALRPHFPVPLIVENSPQYFPIPGSTMGMTDFIRAITDRCDVGLLLDLSHFLITAHNTGAEVHRELARLPLERVVEVHLSGMSVQSGTAWDDHSLPASPILFELLERLLDVARPRALTFEYNWSPYFPLSVLTTHIERARQLMGLA”, for which the “soluble on expression in E. coli” value is “not soluble”. Next, “GKVLDAIIQEKKSGRIPGIYGRLGDLGAIDEKYDIAISSCCHALDYIVVDSIDTAQECVNFLKKHNIGIATFIGLDKMTVWAKKMSKIQTPENTPRLFDLVKVKNEEIRQAFYFALRDTLVANNLDQATRVAYQRDRRWRVVTLQGQIIEQSGTMSGGLEHHHHHH”: “soluble”; “MAHHHHHHMLAAIQGFGTRVAARTAGQALRRGLGVVPLRRCCPFRCASSASLPSDVEVHQGSDDYRHSDDAFTLSTEVLGTAEEKATLDEDEFDELEAASQELHDLCYALIAHLRCADPEANKALFERRVQRAFREPKPEQYRRLLHGHGDRSLRRRNNYRTRKDFQEAHRLYLQWCDKLLLLLTQPVLDRLVKSAGKGHRDLRTDGVHRYRRPLERATWRSFPHRWFKHAPFEVQQLRADIPESAVLNTRFYRDHATLRYLFTLMEPQHAFREKIERRVMDLTQRYDPLRKSIE”: “not soluble”; “LLEIDFAELTLEEIIGIGGFGKVYRAFWIGDEVAVKAARHDPDEDISQTIENVRQEAKLFAMLKHPNIIALRGVCLKEPNLCLVMEFARGGPLNRVLSGKRIPPDILVNWAVQIARGMNYLHDEAIVPIIHRDLKSSNILILQKVENGDLSNKILKITDFGLAREWHRTTKMSAAGAYAWMAPEVIRASMFSKGSDVWSYGVLLWELLTGEVPFRGIDGLAVAYGVAMNKLALPIPSTCPEPFAKLMEDCWNPDPHSRPSFTNILDQLTTI”: “soluble”.

For “MGSDKIHHHHHHLTDAEIDASFNPYQAGPTTSPGITPGMKIDKSNAQKFRDIIDPATYALIEQGKLEFPVEETHSIALHPNYIAATKKHSSQVKLGSATGTIEGYVAGRPFPGKPDKSDPRAGEKLAFNYKYAQIVGDSGRIYPFIWQYKDARSGKVERQLEFDFNFLSFKHRTTQLPTADIEPNPSKFYRGIYLKVLSPQDLKNTQLLIQRFDDDTKLDDSYLYLGFQRRVRRLATGQTTDSFLGSDLMIEDFEGYNGRVPDMDWKYVETKVMLLPVYRHSEWKKTEPRDQMGYGQVQFDGQAQCFQNIPWSLRVVHVIEGVPVESRNPIGKRILYMDAQTSIFPIINMYDRKGALWKRWAIGFSDSAYHAPANQAAGIAIYTSASMLDVQAQHCTTLQLRMISDPALSPPSIFSVQNLRGGD”, the “soluble on expression in E. coli” value is reported as “not soluble”.

For the sequence “MTITDKNRLTGEADPRRTSLYGPPSMDALTERALHLARAGRALLGIVGEPGAGKSTFAEQLRARLEKERPGLAVTVSMDGFHLAQKVIEARGQAADKGTIDTFDADGFVALLRRTRAETGDTENTESTVWWPEFDRDLEDPVAGSIEVAPHHRLVIVDGNFLLSAQEPWRQVKGLLDETWFLDALPEPRRERLTRRYISYGFTPEAARAKTLGVDEDTSALIRSTVSRADLVIGEARESGGVSDC”, the “soluble on expression in E. coli” value is “not soluble”. “MGSDKIHHHHHHMYMYVNDKLVKEEEAIISPFDHGYMYGLGLFETFRLYEGHPFLLDDHFVRLEEGLRALAIDWTYNRSHVLHQLATLCNKNGVRNAYIRWNVSAGPGPIGLYTDTYKEPTVIIYMKSLPQGLSTRKTGTLLELRRNTPEGDRRLKSHHFLNNVLGKREVAKDPQTEGIFLTEDGVLAEGLTSNVFWVKNGVVYTPSVDTGILNGITRQFVLTLCDKEGIPWREGRYPKEALLKADGAFITNSIQEIVTLTSVGQAEFNQDEAVIMSLRKSYQKYCTKLWSKNEIKEGKQDVNNTCK”: the “soluble on expression in E. coli” value was “not soluble”.

Take “MTQTPDREKALELAVAQIEKSYGKGSVMRLGDEARQPISVIPTGSIALDVALGIGGLPRGRVIEIYGPESSGKTTVALHAVANAQAAGGVAAFIDAEHALDPDYAKKLGVDTDSLLVSQPDTGEQALEIADMLIRSGALDIVVIDSVAALVPRAELEGEMGDSHVGLQARLMSQALRKMTGALNNSGTTAIFINQLRDKIGVMFGSPETTTGGKALKFYASVRMDVRRVETLKDGTNAVGNRTRVKVVKNKCLAPFKQAEFDILYGKGISREGSLIDMGVDQGLIRKSGAWFTYEGEQLGQGKENARNFLVENADVADEIEKKIKEKLGIGAVVTDDPSNDGVLPAPVDF”: the “soluble on expression in E. coli” value is listed as “soluble”.

Consider “MSLDCFAPAVLGMPAFDRHATWQAMHATTHFIGRVGVAQVGLCAMNLALWDIQLKIEEVPLWRHLGPVKDRVKAYNTDGGWLTWTTAEVIDDMHHIINRGFDAVKMKLGRSDPMEDFQRVRAVRQAIGDDIKLMVDVNTVWDLETAIQWGKRLEELNVEWLEEPLHPFDVRSHAALAKAIRTPIAVGETVYTVYGFREYIAQEAAGVLQADVTKLSGIEEWLEVAAIGQTHGLQVIPHTNVQQNVHVQLAAATTNTPMIECCYESLFEIWENPVRVVDGFYTLPDVPGINGKLTETVLEKFRVSEGHHHHHH”, for which the “soluble on expression in E. coli” value is given as “soluble”. The result for “AMLPHGLIVSCQALPDEPLHSSFIMSKMALAAYEGGAVGIRANTKEDILAIKETVDLPVIGIVKRDYDHSDVFITATSKEVDELIESQCEVIALDATLQQRPKETLDELVSYIRTHAPNVEIMADIATVEEAKNAARLGFDYIGTTLHGYTSYTQGQLLYQNDFQFLKDVLQSVDAKVIAEGNVITPDMYKRVMDLGVHCSVVGGAITRPKEITKRFVQVMED” reads “soluble”; that for “FINQKKVEESELIENKTYGVLITKAGNYHKFESNQLLKSTTDFKSESDTIIFAQTIANTDQIFIVTSLGNIINIPVYKLAFNSKNKLASLVSKKPILLEYETIVFVGTMN”, “not soluble”. The result for “MSLSFTSTIKVVIADDHAILREGLKQILAETEDIEVVADAKNAAEAIKLAGTKGLDVVVLDISLPDRSGIEACNIIKKEHPGVAVLMLSMHREDAYAIRALRAGAVGYLSKQSASDQLVTAIRTVAKGKKYISAEVALALADQVSGGLEKPIHDTLSNREFQTLTMIASGLSVSEIAENLSLSVKTVSMYRARLLEKLNLRHNAELTHYAIKNNLIDEGHHHHHH” reads “soluble”; that for “MQYKDENGVNEPSRRRLLKVIGALALAGSCPVAHAQKTQSAPGTLSPDARNEKQPFYGEHQAGILTPQQAAMMLVAFDVLASDKADLERLFRLLTQRFAFLTQGGAAPETPNPRLPPLDSGILGGYIAPDNLTITLSVGHSLFDERFGLAPQMPKKLQKMTRFPNDSLDAALCHGDVLLQICANTQDTVIHALRDIIKHTPDLLSVRWKREGFISDHAARSKGKETPINLLGFKDGTANPDSQNDKLMQKVVWVTADQQEPAWTIGGSYQAVRLIQFRVEFWDRTPLKEQQTIFGRDKQTGAPLGMQHEHDVPDYASDPEGKVIALDSHIRLANPRTAESESSLMLRRGYSYSLGVTNSGQLDMGLLFVCYQHDLEKGFLTVQKRLNGEALEEYVKPIGGGYFFALPGVKDANDYFGSALLRV”, “soluble”; that for “MGRFHRHDDGTVHSHDHDHHGHSHDVGDHSGYETGRERIEVLEDIFHENDHCAADNKELFDAHQVRCINIMSSPGAGKTTVLQHVLRAAEGKVRVGVVEGDIETSLDADRLTGFGAQISLLNTGNGFGGECHLDAPMVSRALRGLDLDTLDVVLIENVGNLVCPAEFEVGEHSKAMIYSVTEGEDKPLKYPVMFRSVDAVVINKIDLLPYLDFDMELFMKNLRQVNPDAKVFEVSAKTGEGLDGWIEWLVGAK”, “not soluble”. With “MLNSFKLSLQYILPKLWLTRLAGWGASKRAGWLTKLVIDLFVKYYKVDMKEAQKPDTASYRTFNEFFVRPLRDEVRPIDTDPNVLVMPADGVISQLGKIEEDKILQAKGHNYSLEALLAGNYLMADLFRNGTFVTTYLSPRDYHRVHMPCNGILREMIYVPGDLFSVNHLTAQNVPNLFARNERVICLFDTEFGPMAQILVGATIVGSIETVWAGTITPPREGIIKRWTWPAGENDGSVALLKGQEMGRFKLGSTVINLFAPGKVNLVEQLESLSVTKIGQPLAVSTETFVTPDAEPAPLPAEEIEAEHDASPLVDDKKDQVMGHHHHHHSH”, the “soluble on expression in E. coli” value is “not soluble”.

On to “MGSDKIHHHHHHMKIDDKTGLVLEGGGMRGVFTCGVLDYMMDKKVWFPYGVGVSAGACNGLSYMSRQRGRAKFSNIDLLEKYHYIGIKHLWRKHSILDQELLYEHFPKEILPYDYKTYAENPARFEMVTTNCITGRACYLEEKHDPRRIIAIAKASSSLPYVCPIAYVDGEPMLDGGIVDSIPVLRAIEQGFDKNVVVLTRNRGYRKKGKDMKIPHFIYKKYPRLRVVLSKRCRIYNEQLDLVEQLEDKGRIVVIRPEKPMEVDRIETDIKKLTDLYEEGYACAKKMFEEKRILQK”, for which the “soluble on expression in E. coli” value is on record as “not soluble”.

In the case of “MSLSPKVAWWCRHPLTFLMEAADDLCYSIVDLEDGFHMGYLPFAAVQDKLQSIADIDLNQYEGSPAETIKRLRAKAINRLVKEVAQLFLDHEPDILAGKFDQSLVELSRFSPQLKEIETMTTNAVFHHPNVVRIKIAGFEVLGDLLTDFLTSVLEKQPRPKGKLLKFMLPPEHQIAPDEDNYSKILKVTDYIAGMTDLQATLLYQQLRGEGHHHHHH”, the “soluble on expression in E. coli” value was “soluble”. As to “GIDPFTMLHIEFITDLGAKVTVDVESADKLLDVQRQYGRLGWTSGEVPVGGYQFPLENEPDFDWSLIGARKWTNPEGEEMILHRGHAYRRRELEAVDSRKMKLPAAVKYSRGAKNTDPEHVREKADGEFEYVTLAIFRGGKRQERYAVPGSNRPQAGAPARSAATRAQGARPGAVAVQDEETPF”, the “soluble on expression in E. coli” value was “soluble”.

The record behind these values is the DeepSol protein solubility set.
